The nanobody polyreactivity screen of Harvey et al. (2022)

Experiment: yeast display, Sf9 membrane polyspecificity reagent, FACS + sequencing; frameworks hold sequencing errors
Outline: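 A nanobody's polyreactivity label depends on the gate it was sorted from. Yeast display cells were stained with 10% biotinylated, detergent-solubilized Sf9 membrane reagent for 1 hour at 4 °C, enriched on streptavidin microbeads and sorted by FACS. The low and high (top ~1%) gates were set on anti-HA fluorescence for expression and streptavidin fluorescence for reagent binding.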

| Sequence | polyreactivity (PSR sort gate) |
| --- | --- |
| QVQLVESGGGLVQAGGSLRLSCAASGFIFYPYAMGWYRQAPGKEREVVAVITSGGRTYYADSVKGRFTISRDNAKNTVYLQMNSLKPEDTAVYYCAARYGRIHWKANWPEYGYWGQGTQVTVSS | low polyreactivity |
| QVQLVESGGGLVQAGGSLRLSCAASGFIFYQYAMGWYRQAPGKERELVAAISTRGGSTYYADSVKGRFTISRDNAKNTVYLQMNSLKPEDTAVYYCNVLKYLSPGTYDYDYWGQGTQVTVSS | high polyreactivity |
| QVQLVESGGGLVQAGGSLRLSCAASGFIFYRKTMGWYRQAPGKERELDAAISVSGGSTNYADSVKGRFTISRDNAKNTVYLQMNSLKPEDTAVYYCAARVRDSLVYGGWDDYWGQGTQVTVSS | high polyreactivity |
| QVQLVESGGGLVQAGGSLRLSCAASGFIFYRNAMGWYRQAPGKERELVAAISGSGGRTYYADSVKGRFTISRDNAKITVYLQMNSLNPEDTAVYYCNAGPLYRGEYDYWGQGTQVTVSS | high polyreactivity |
| QVQLVESGGGLVQAGGSLRLSCAASGFIFYRNAMGWYRQAPGKERELVAAISVDGSTYYADSVKGRFTISRDNAKNTVYLQMNSQKPEDTAVYYCAAEYYSSYYQYVIYGYWGQGTQVTVSS | low polyreactivity |
| QVQLVESGGGLVQAGGSLRLSCAASGFIFYRNTMGWYRQAPGKEREFVAAIRWRGGSTYYADSVKGRFTISRDNAKNTVYLQMNSLKPEDTAVYYCAADSRPVYSGFEYWGQGTQVTVSS | high polyreactivity |
| QVQLVESGGGLVQAGGSLRLSCAASGFIFYRNTMGWYRQAPGKEREFVAAIRWRGGSTYYADSVKGRFTISRDNAKNTVYLQMNSLKPEDTAVYYCNALGKPTWYATTYDYWGQGTQVTVSS | high polyreactivity |
| QVQLVESGGGLVQAGGSLRLSCAASGFIFYRNTMGWYRQAPGKESELVAAISRRGGNTYYADSVKGRFTISRDYAKNTVYLQMNSLKPEDTAVYYCNADGNAVYNRVSYDYWGQGTQVTVSS | high polyreactivity |
| QVQLVESGGGLVQAGGSLRLSCAASGFIFYRYAMGWYRQAPGKERELVAAISRSGGTTYYADSVKGRFTISRDNAKNTVYLQMNSLKPEDTAVYYCNVKRGTIGGYYYWGQGTQVTVSS | high polyreactivity |
| QVQLVESGGGLVQAGGSLRLSCAASGFIFYRYAMGWYRQAPGKERELVAAISSGGGRTYYADSVKGRFTISRDNAKNTVYLQMNSLKPEDTAVYYCAKGYFWSSYVSSRYGSWGQGTQVTVSS | high polyreactivity |
| QVQLVESGGGLVQAGGSLRLSCAASGFIFYRYAMGWYRQAPGKERELVARISWNGGITYYADSVKGRFTISRDNAKNTVYLQMNILKPEDTAVYYCNKPDPYGLYTYEYWGQGTQVTVSS | low polyreactivity |
| QVQLVESGGGLVQAGGSLRLSCAASGFIFYSNAMGWYRQAPGKERELVAAIRSTGSTSYADSVKGRFTISRDNAKNTVYLQMNILKPEDTAVYYCAKVRYWRGYDYWGQGTQVTVSS | high polyreactivity |
| QVQLVESGGGLVQAGGSLRLSCAASGFIFYSNAMGWYRQSPGKERELVAGISRGGSTYYADSVKGRFTISRDNAKNTVYLQMNRLKPEDTAVYYCAAKISLGDDYWGQGTQVTVSS | low polyreactivity |
| QVQLVESGGGLVQAGGSLRLSCAASGFIFYSSDMGWYRQSPGKERELVAAIDSRGVNTYYADSVKGRFTISRDNAKNTVYLQMNSLKPEDTAVYYCNVDAINWWDWEDFDYWGQGTQVTVSS | low polyreactivity |
| QVQLVESGGGLVQAGGSLRLSCAASGFIFYSYALGWYRQAPGKEREFVASISGRTGSTYYADSVKGRFTISRDNAKNTVYLQMNSLKPEDTAVYYCNARIVHSFRYDYWGQGTQVTVSS | low polyreactivity |
| QVQLVESGGGLVQAGGSLRLSCAASGFIFYTYAMGWYRQAPGKERELVAAISRGGRTNYADSVKGRFTISRDNAKNSVYLQMNSLKPEDTAVYYCASSYSHRYDYWGQGTQVTVSS | high polyreactivity |
| QVQLVESGGGLVQAGGSLRLSCAASGFIFYYAMGWYRQAPGKERELVAGITESDGSTNYADSVKGRFTISRDNAKNTVYLQMNSLKTEVTAVYYCAKDASSLRFDYWGQGTQVTVSS | low polyreactivity |
| QVQLVESGGGLVQAGGSLRLSCAASGFIFYYNAMGRYRQAPGKERELVATIRGSGGSTYYADSVKGRFTISRDNAKNTVYLQMNSLKPEDTAVYYCATTIYGLTSRLYYWGQGTQVTVSS | high polyreactivity |
| QVQLVESGGGLVQAGGSLRLSCAASGFIFYYNAMGWYRQAPGKERELVAAISASGDRTYYADSVKGRFTISRDNAKNTVYLQMNSLKPEDTAVYYCAARSQGARYSSRRRFGDYWGQGTQVTVSS | high polyreactivity |
| QVQLVESGGGLVQAGGSLRLSCAASGFIFYYNTMGWYRQATGKESELVDSITWSGDTTYYADSVKGRFTISRDNAKKTVYLQMNSLKPEDTAVYYCAAVHYYPYRRYDYWGQGTQVTVSS | low polyreactivity |
| QVQLVESGGGLVQAGGSLRLSCAASGFIFYYYAMGWYRQAPAKERELVAVITSGGSTNYADSVKGRFTISRDNAKNTVYLQMNSLKPEDTAVYYCAARSRRRDDYWGQGTQVTVSS | high polyreactivity |

| Sequence | polyreactivity (PSR sort gate) |
| --- | --- |
| QVQLVESGGGLVQAGGSLRLSCAASGFIFYYYAMGWYRQAPGKERELFAAISKSGGSTYYADSVKGRFTISRDHAKNTVYLEMNSLKPEDTAVYYCAGVVTTWPYYGFGYWGQGTQVTVSS | high polyreactivity |
| QVQLVESGGGLVQAGGSLRLSCAASGFIFYYYAMGWYRQAPGKERELVAAISVRGGRTYYADSVKGRFTISRDNAKNTVYLQMNSLKPEDTAVYYCAADLYNRGRGSSQSYRTGYDYWGQGTQVTVSS | high polyreactivity |
| QVQLVESGGGLVQAGGSLRLSCAASGFIFYYYAMGWYRQAPGKERELVAAITSGGGTTYYADSVKGRFTISRDNAKNTVYLQMNSLKPEDTAVYYCNADSYYNSWFYYFDGFDGDYWGQGTQVTVSS | high polyreactivity |
| QVQLVESGGGLVQAGGSLRLSCAASGFIFYYYTMGWYRQAPGKERELVAAISSSGGRTYYADSVKGRFTISRDNAKNTVYLQMNSLKPEDTAVYYCAALYRWNQFPYFKGGYWGQGTQVTVSS | high polyreactivity |
| QVQLVESGGGLVQAGGSLRLSCAASGFIGWYRQAPGKERELVAAISWRGGRTYYADSVKGRFTISRDNAKNTVYLQMNSLKPEDTAVYYCNAVGNVWGYDSWGQGTQVTVSS | high polyreactivity |
| QVQLVESGGGLVQAGGSLRLSCAASGFIIADYTMGWYRQAPGKERELVAAITRSGDSTYYADSVKGRFTISRDNAKNTVYLQMNSLKPEDTAVYYCNAVNDWYYAYYGVTSFRSYDYWGQGTQVTVSS | low polyreactivity |
| QVQLVESGGGLVQAGGSLRLSCAASGFIIAFDNAMGWYRQAPGKERELVAAISSGTTTHYADSVKGRFTISRDNAKNTVYLQMNSLKPEDTAVYYCAADSVKQVRYGNVGHDYWGQGTQVTVSS | low polyreactivity |
| QVQLVESGGGLVQAGGSLRLSCAASGFIIAGYAMGWYRQAHGKEMELVAAISSRGGSTYYADSVKGRFTISRDNAKNTFYLQMNSLKPEDTSVYYCARTTPTGRQYRRYDYWGQGTQVTESS | low polyreactivity |
| QVQLVESGGGLVQAGGSLRLSCAASGFIIAYYAMGWDRQAPGKERELVAAINGGGGSRSYADSVKGRFTISRDNAKNTVYLQMNSLKPEDTAVFYCAADGSDDEENDYWGQGTQVTVSS | high polyreactivity |
| QVQLVESGGGLVQAGGSLRLSCAASGFIIDGYAMGWYRQAPGKERELVAVISQRGSNTYYADSVKGRFTISRDNAKNTVYLQMNSLKPEDTAVYYCAARYKQGDSTGGRMNYWGQGTQVTVSS | high polyreactivity |
| QVQLVESGGGLVQAGGSLRLSCAASGFIIDRNAMGWYRQAAGKERELVAAITSRGGSTYYADSVKGRFTISRDNAKNTVYLQMNSLKPEDTAVYYCNAGRRVSTYGYWGPGTQVTVSS | high polyreactivity |
| QVQLVESGGGLVQAGGSLRLSCAASGFIIDSYAMGWYRQAPGKERELVATITKGGGRTYYADSVKGRFTISRDNAKNTVYLQMNSLKPEDTAVYYCNARGFSRRKGLDYWGQGTQVTVSS | low polyreactivity |
| QVQLVESGGGLVQAGGSLRLSCAASGFIIGDYAMGWYRQAPGTERELVAAIFSVGSTYYADSVKGRFTISRDNAKNTVYLQMNSLKPEDTAVYYCAARFARYDWSMYYWGQGTQVTVSS | low polyreactivity |
| QVQLVESGGGLVQAGGSLRLSCAASGFIIIGNAMVWYRQAPGKERELVAAISRRGGSTYYADSVKGRFTISRDNAKNTVYLQMNSLKPEDTAVYYCATDPGARVHYPTGDYWGQGTQVTLSS | high polyreactivity |
| QVQLVESGGGLVQAGGSLRLSCAASGFIIIGYVMGWYRQAPGKERELVAAITSSGGSTYYADSVKGRFTISRDHAKNTVYLQMNSLKPEDTAVYYCAAEYYLLWSGMEYWGQGTQVTVSS | low polyreactivity |
| QVQLVESGGGLVQAGGSLRLSCAASGFIILINVMGGYRQAPGNERELVAVITGGGTTNYADSVKGRFTISRDNAKNTVYLQMYSLKPEDTAVYYCAADWIVVSEFGLDYHMDYWGQGSQVTVSS | low polyreactivity |
| QVQLVESGGGLVQAGGSLRLSCAASGFIILIYAMGWYRQAPGKERELVATIRYSGGRTYYADSVKGRFTISRDNAKNTVFLQMNSLKPEDTAVDYCAADGYPTLYDYWGQGTQVTVSS | high polyreactivity |
| QVQLVESGGGLVQAGGSLRLSCAASGFIIPGYAMGWYRQAPGKERELVAAISSGTSTYYADSVKGRFTISRDNAKNTVYLQMNSLKPEDTAVYYCAAETWYRFGYWGQGTQVTVSS | low polyreactivity |
| QVQLVESGGGLVQAGGSLRLSCAASGFIITQYAMGWYSQEPGKERELVAAISGNGGRTYYADSVKGRFTISRDNAKYTVYLHLISLKPEDTAVYYCAVTYYWYGVRYDYWGQCTQVTVSS | high polyreactivity |
| QVQLVESGGGLVQAGGSLRLSCAASGFIIVIYAMGWYIQAPGKERELVAAIRWRGGGTYYADSVKGRFTISRDNAKNTVYLQMNSLKPEDTAVYYCNADGWTYREEYWWRMDYWGLGTQVTVSS | low polyreactivity |
